Results as given in publication PMC8189969, “Interaction standards for biophysics: anti-lysozyme nanobodies” (European Biophysics Journal, 2021).
Numbering of substitutions follows the chain as printed. Names and notes keep the numbering of the source.

B1: H04 H106A nanobody (VHH)
VHH: EVQLLESGGGLVQPGGSLRLSCAASGFRFDAEDMGWVRQAPGKGLEWVSSIYGPSGSTYYADSVKGRFTISRDNSKNTLYLQMNSLRAEDTAVYYCAKYTSPPQNAGFDYWGQGTLVTVSS
notes: as the chain of m2 (H04) with H106A in CDR3; source: E. coli T7-Express, purified (IMAC, Superdex-75)
B2: H04 nanobody (VHH)
VHH: B1 VHH with A106H
notes: crystal structure with lysozyme PDB 4U3X (Rouet et al. 2015); CDR3 of 12 residues; Developed in Daniel Christ's group (Rouet et al. 2015); source: E. coli T7-Express, purified (IMAC, Superdex-75)
B3: Cab-Lys3 nanobody (VHH)
VHH: DVQLQASGGGSVQAGGSLRLSCAASGYTIGPYCMGWFRQAPGKEREGVAAINMGGGITYYADSVKGRFTISQDNAKNTVYLLMNSLEPEDTAIYYCAADSTIYASYYECGHGLSTGGYGYDSWGQGTQVTVSS
notes: crystal structure PDB 1XFP named for it (Muyldermans and Lauwereys 1999); CDR3 of 24 residues with an extra disulphide between CDR1 and CDR3; also called WT Cab-Lys3; source: E. coli T7-Express, purified (IMAC, Superdex-75)
B4: Cab-Lys3 S105N nanobody (VHH)
VHH: B3 VHH with S105N
notes: as the chain of m6 (Cab-Lys3) with S105N in CDR3; source: E. coli T7-Express, purified (IMAC, Superdex-75)
B5: Cab-Lys3 T101S nanobody (VHH)
VHH: B3 VHH with T101S
notes: as the chain of m6 (Cab-Lys3) with T101S in CDR3; source: E. coli T7-Express, purified (IMAC, Superdex-75)
B6: Phage-F07 nanobody (VHH)
VHH: EVQLQASGGGFVQPGGSLRLSCAASGTSSDLYDMGWFRQAPGKEREFVSAISGDDTQYTYYADSVKGRFTISRDNSKNTVYLQMNSLRAEDTATYYCAPRAHEPHGHWNYYWGQGTQVTVSS
notes: selected by phage display from the NaLi-H1 synthetic library (Hybrigenics); also called P-F07; source: E. coli T7-Express, purified (IMAC, Superdex-75)
B7: Phage-B09 nanobody (VHH)
VHH: EVQLQASGGGFVQPGGSLRLSCAASGSTYRRSTMGWFRQAPGKEREFVSAISSDHSHPDYYADSVKGRFTISRDNSKNTVYLQMNSLRAEDTATYYCAFQYDSDKKSYWGQGTQVTVSS
notes: selected by phage display from the NaLi-H1 synthetic library (Hybrigenics); also called P-B09; source: E. coli T7-Express, purified (IMAC, Superdex-75)

Each binder was assayed against T1, hen egg white lysozyme (Gallus gallus (hen egg white), UniProt P00698) (assay: SPR; Biacore T200; lysozyme amine-coupled (EDC/NHS) to a CM5 chip, max 100 units; nanobody as analyte, multi-cycle kinetics; PBS with 0.01% tween20; 20 °C (row labels of Table 1); Langmuir 1:1 model). Conditions: both partners purified.
T1 construct: hen egg white lysozyme (HEWL), 14.5 kDa, monomeric; The source is named for ITC (Roche powder); also called HEWL; source: bought: Roche (HEWL lysozyme powder, > 95%)
T1 sequence (P00698 19-147): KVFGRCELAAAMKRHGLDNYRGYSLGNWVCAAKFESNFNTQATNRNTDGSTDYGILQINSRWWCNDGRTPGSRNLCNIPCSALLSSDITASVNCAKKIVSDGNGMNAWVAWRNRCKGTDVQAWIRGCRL
B1 gave a Kd of about 250 nM.

The binders below were run against T1, hen egg white lysozyme (assay: ITC; Malvern PEAQ-ITC; 20 °C; PBS pH 7.4 with 0.005% tween 20; lysozyme in the cell and nanobody titrated (so in the source); nanobody 20 or 30 µM, lysozyme 200 or 300 µM; single site model). Conditions: both partners purified.
In the case of B2, the Kd is reported as 24 nM and the dH is reported as -17.6 kcal/mol.
With B1 the Kd was 296 nM and the dH was -17 kcal/mol.
B3 was tested, and the Kd was 27 nM and the dH was 1.6 kcal/mol.
In the case of B4, the Kd is reported as 125 nM and the dH is reported as 2.6 kcal/mol.
Binder B5 has a Kd of 113 nM and a dH of 3 kcal/mol.
With B6 the Kd was 685 nM and the dH was -23.5 kcal/mol.
Binder B7 has a Kd of 1430 nM and a dH of -14.5 kcal/mol.

The binders below were run against H04 nanobody (assay: SEC-MALS; Superdex-75 10/300, 0.75 ml/min, PBS pH 7.4; Wyatt Helios 18-angle photometer, QELS, Optilab TrEX). Conditions: not given.
Work on B2 yielded a stoichiometry N of 2.

Target: T1, hen egg white lysozyme
Assay: SPR; Biacore T200; lysozyme amine-coupled (EDC/NHS) to a CM5 chip, max 100 units; nanobody as analyte, multi-cycle kinetics; PBS with 0.01% tween20; 20 °C (row labels of Table 1); Langmuir 1:1 model
Conditions: both partners purified
Remark: another data set of the same source
For B2, the Kd was 19 nM, the koff was 0.0008 s⁻¹ and the kon was 43000 M⁻¹ s⁻¹.
B1 gave a Kd of 124 nM, a koff of 0.056 s⁻¹ and a kon of 450000 M⁻¹ s⁻¹.
B3 showed a Kd of 5 nM, a koff of 0.0009 s⁻¹ and a kon of 41000 M⁻¹ s⁻¹.
B4 showed a Kd of 35 nM, a koff of 0.0028 s⁻¹ and a kon of 79000 M⁻¹ s⁻¹.
B5 gave a Kd of 135 nM, a koff of 0.029 s⁻¹ and a kon of 160000 M⁻¹ s⁻¹.
B7 was tested, and the Kd was 1300 nM, the koff was 0.6 s⁻¹ and the kon was 450000 M⁻¹ s⁻¹.

These binders were tested against T1, hen egg white lysozyme (assay: ITC; Malvern PEAQ-ITC; 37 °C; PBS pH 7.4 with 0.005% tween 20; lysozyme in the cell and nanobody titrated (so in the source); single site model). Conditions: both partners purified.
In the case of B3, the Kd is reported as 5 nM and the dH is reported as -4.02 kcal/mol.
B4 gave a Kd of 73 nM and a dH of -3.3 kcal/mol.
Binder B5 has a Kd of 105 nM and a dH of -5.1 kcal/mol.
